From publication PMC4078008, “Exploring metabolic engineering design principles for the photosynthetic production of lactic acid by Synechocystis sp. PCC6803” (Biotechnology for Biofuels, 2014)
Where a chain is given by its changes, count along the chain named. Names and notes keep the numbering of the source.

Substrate: CC(=O)C(=O)O
Assay: purified protein
Assay type: biochemical, Bacillus subtilis
Details: 50 mM phosphate pH 6.5, 30 °C, no FBP, co-substrate NADH (general LDH assay)

B1: L-LDH of B. subtilis (BsLDH) (Bacillus subtilis subsp. subtilis str. 168) (protein)
chain: MNKHVNKVALIGAGFVGSSYAFALINQGITDELVVIDVNKEKAMGDVMDLNHGKAFAPQPVKTSYGTYEDCKDADIVCICAGANQKPGETRLELVEKNLKIFKGIVSEVMASGFDGIFLVATNPVDILTYATWKFSGLPKERVIGSGTTLDSARFRFMLSEYFGAAPQNVHAHIIGEHGDTELPVWSHANVGGVPVSELVEKNDAYKQEELDQIVDDVKNAAYHIIEKKGATYYGVAMSLARITKAILHNENSILTVSTYLDGQYGADDVYIGVPAVVNRGGIAGITELNLNEKEKEQFLHSAGVLKNILKPHFAEQKVN
notes: codon-optimized gene, pET28b+ NdeI/HindIII, N-terminal His-tag (removal not mentioned), E. coli BL21(DE3), HisTrap-purified
B1 was tested, and the Km was 4.34 ± 1.24 mM.

B2: L-LDH of B. subtilis (BsLDH) (Bacillus subtilis subsp. subtilis str. 168; V38R) (protein)
chain: B1 chain with V38R
notes: as for B1
B2 showed a Km of 4.00 ± 0.50 mM.
